Results published in FireProtDB (doi:10.1021/bi00185a025).

B1: Chemotaxis protein CheY, P0AE67 (parent)
chain: MADKELKFLVVDDFSTMRRIVRNLLKELGFNNVEEAEDGVDALNKLQAGGYGFVISDWNMPNMDGLELLKTIRADGAMSALPVLMVTAEAKKENIIAAAQAGASGYVVKPFTAATLEEKLNKIFEKLGM

Variants of: B1
Settings: Escherichia coli (strain K12); pH 7; 25 °C; Urea; CD; Sodium phosphate 5 mM; reversible: yes; structure 1CEY; whole UniProt chain shown

Row | Variant | ddG of mutation (higher = less stable) [kcal/mol] | denaturant m value [kcal/mol/M] | denaturant midpoint (higher = more stable) [M] | unfolding free energy [kcal/mol]
1 | P110G F14N | -1.1 | 1.6 | 3.94 | 6.3
2 | F14N | -2.9 | 1.8 | 4.5 | 8.1
